Measured values taken from publication PMC6270800, “The Effect of Mini-PEG-Based Spacer Length on Binding and Pharmacokinetic Properties of a ^68Ga-Labeled NOTA-Conjugated Antagonistic Analog of Bombesin” (Molecules, 2014).

Legend:
[1] = format: physicochemical; conditions: pH 7.4
Procedure: Aliquots of 50 μL were taken from each phase, and their radioactivity was measured in an automated gamma-counter with 3-inch NaI(Tl) detector (1480 WIZARD, Wallac OyTurku, Finland). Each measurement was repeated nine times. The distribution coefficient was calculated as the average log of a ratio of the radioactivity in the octanol and the PBS fractions.

PC-3 cells = test: Cellular uptake and internalization assay, PC-3 cells; format: cell-based, human; conditions: ^111In-labeled, 24 h continuous incubation, 2 nM, 37 °C
Procedure: (§1) GRPR expressing human PC cell line PC-3 and human BC cell line BT-474 (ATCC) were cultured in RPMI media complemented with 10% FBS, 2 mM L-glutamine and PEST (penicillin 100 IU/mL) (all from Biochrom AG, Berlin, Germany). This media is referred as complete media in the text. In all in vitro experiments, cells were incubated in complete medium and detached using trypsin-EDTA solution (0.25% trypsin, 0.02% EDTA in buffer; Biochrom AG). All experiments were performed in triplicate and 1 × 10^6 cells/dish were seeded one day before the experiment.
(§2) At predetermined time points, the incubation media was discarded, the cells were washed and the membrane-bound and internalized radioactivity were collected using the method described earlier.

in vivo = conditions: female, NMRI, mouse, iv, 45 pmol, total radioactivity
Procedure: The biodistribution of ^68Ga-labeled NOTA-PEGn-RM26 was evaluated in female NMRI mice (weight: 30 ± 3 g).
Female NMRI mice (3 mice per data point) were injected with 45 pmol of ^68Ga-NOTA-PEGn-RM26 (350 or 700 kBq, 100 µL in PBS) into the tail vein. The administrated peptide dose was adjusted to 45 pmol by dilution with non-labeled NOTA-PEGn-RM26. The mice were euthanized at 1 and 2 h p.i. by intraperitoneal injection of a Ketalar-Rompun solution (10 mg/mL Ketalar and 1 mg/mL Rompun; 20 µL of solution per gram of body weight). Blood samples were collected by heart puncture. The organs of interest were collected, weighed, and their radioactivity content was measured in the gamma-counter. The organ uptake values are expressed as %ID/g except for gastrointestinal (GI) tract (with content) and carcass in which data are presented as %ID per whole sample.

BT-474 cells = test: Cellular uptake and internalization assay, BT-474 cells; format: cell-based, human; conditions: ^111In-labeled; BT474 cells; 24 h continuous incubation, 2 nM, 37 °C
Procedure: as §1, §2

BT-474 xenografts = format: in vivo, BALB/c nu/nu mice; conditions: BT-474 tumors; 2 h p.i.
Procedure: (§3) To study tumor targeting, female BALB/c nu/nu mice bearing PC-3 and BT-474 xenografts (4 mice per data point) were intravenously injected with 45 pmol of ^68Ga-NOTA-PEG3-RM26 (700 kBq, 100 µL in PBS). The mice were euthanized at 2 h p.i. and the organ radioactivity content was measured and evaluated as described above. To test the in vivo binding specificity, a group of animals was co-injected with 20 nmol of unlabeled peptide, and biodistribution was measured at 2 h p.i.

PC-3 xenografts = format: in vivo, BALB/c nu/nu mice; conditions: PC-3 tumors; 2 h p.i.
Procedure: as §3

SMILES	logD [1]	Internalization rate, % internalized radioactivity from total cell associated (PC-3 cells)	tissue uptake dose at 1 h (in vivo; Uptake in GI (with content))	tissue uptake dose at 2 h (in vivo; Uptake in GI (with content))	tissue uptake dose at 1 h (in vivo; Uptake in carcass)	tissue uptake dose at 2 h (in vivo; Uptake in carcass)	Internalization rate, % internalized radioactivity from total cell associated (BT-474 cells)	LogD of ^68Ga-NOTA-PEGn-RM26 [1]	Decrease of tumor uptake by co-injection of non-labeled peptide (BT-474 xenografts)	Decrease of tumor uptake by co-injection of non-labeled peptide (PC-3 xenografts)
CC(C)C[C@H](NC(=O)C[C@H](O)[C@H](CC(C)C)NC(=O)[C@H](Cc1c[nH]cn1)NC(=O)CNC(=O)[C@@H](NC(=O)[C@H](C)NC(=O)[C@H](Cc1c[nH]c2ccccc12)NC(=O)[C@H](CCC(N)=O)NC(=O)[C@@H](Cc1ccccc1)NC(=O)CCOCCOCCOCCOCCOCCOCCNC(=O)CN1CCN(CC(=O)O)CCN(CC(=O)O)CC1)C(C)C)C(N)=O [^68Ga-NOTA-PEG6-RM26, metal not drawn]	-2.5 ± 0.09									
CC(C)C[C@H](NC(=O)C[C@H](O)[C@H](CC(C)C)NC(=O)[C@H](Cc1c[nH]cn1)NC(=O)CNC(=O)[C@@H](NC(=O)[C@H](C)NC(=O)[C@H](Cc1c[nH]c2ccccc12)NC(=O)[C@H](CCC(N)=O)NC(=O)[C@@H](Cc1ccccc1)NC(=O)CCOCCOCCOCCNC(=O)CN1CCN(CC(=O)O)CCN(CC(=O)O)CC1)C(C)C)C(N)=O [PEG3]	-2.47 ± 0.06	31 ± 2%	3.7 ± 0.8 %ID	2.5 ± 0.7 %ID	2.1 ± 0.4 %ID	0.7 ± 0.1 %ID	32 ± 2%			
CC(C)C[C@H](NC(=O)C[C@H](O)[C@H](CC(C)C)NC(=O)[C@H](Cc1c[nH]cn1)NC(=O)CNC(=O)[C@@H](NC(=O)[C@H](C)NC(=O)[C@H](Cc1c[nH]c2ccccc12)NC(=O)[C@H](CCC(N)=O)NC(=O)[C@@H](Cc1ccccc1)NC(=O)CCOCCOCCOCCOCCOCCOCCNC(=O)CN1CCN(CC(=O)O)CCN(CC(=O)O)CC1)C(C)C)C(N)=O [PEG6]		35 ± 2%	2.8 ± 0.2 %ID	1.8 ± 0.5 %ID	3 ± 1 %ID	0.71 ± 0.05 %ID		−2.50 ± 0.09		
CC(C)C[C@H](NC(=O)C[C@H](O)[C@H](CC(C)C)NC(=O)[C@H](Cc1c[nH]cn1)NC(=O)CNC(=O)[C@@H](NC(=O)[C@H](C)NC(=O)[C@H](Cc1c[nH]c2ccccc12)NC(=O)[C@H](CCC(N)=O)NC(=O)[C@@H](Cc1ccccc1)NC(=O)CCOCCOCCOCCNC(=O)CN1CCN(CC(=O)O)CCN(CC(=O)O)CC1)C(C)C)C(N)=O [^68Ga-NOTA-PEG3-RM26, metal not drawn]									more than 7 fold	~5 fold
CC(C)C[C@H](NC(=O)C[C@H](O)[C@H](CC(C)C)NC(=O)[C@H](Cc1c[nH]cn1)NC(=O)CNC(=O)[C@@H](NC(=O)[C@H](C)NC(=O)[C@H](Cc1c[nH]c2ccccc12)NC(=O)[C@H](CCC(N)=O)NC(=O)[C@@H](Cc1ccccc1)NC(=O)COCCOCCNC(=O)CN1CCN(CC(=O)O)CCN(CC(=O)O)CC1)C(C)C)C(N)=O [PEG2]			4 ± 2 %ID	2.88 ± 0.06 %ID	4 ± 1 %ID	0.9 ± 0.4 %ID		−2.27 ± 0.07		
CC(C)C[C@H](NC(=O)C[C@H](O)[C@H](CC(C)C)NC(=O)[C@H](Cc1c[nH]cn1)NC(=O)CNC(=O)[C@@H](NC(=O)[C@H](C)NC(=O)[C@H](Cc1c[nH]c2ccccc12)NC(=O)[C@H](CCC(N)=O)NC(=O)[C@@H](Cc1ccccc1)NC(=O)CCOCCOCCOCCOCCNC(=O)CN1CCN(CC(=O)O)CCN(CC(=O)O)CC1)C(C)C)C(N)=O [PEG4]	-2.49 ± 0.1		3.5 ± 0.6 %ID	3.1 ± 0.9 %ID	2.3 ± 0.5 %ID	1.2 ± 0.3 %ID				
CC(C)C[C@H](NC(=O)C[C@H](O)[C@H](CC(C)C)NC(=O)[C@H](Cc1c[nH]cn1)NC(=O)CNC(=O)[C@@H](NC(=O)[C@H](C)NC(=O)[C@H](Cc1c[nH]c2ccccc12)NC(=O)[C@H](CCC(N)=O)NC(=O)[C@@H](Cc1ccccc1)NC(=O)COCCOCCNC(=O)CN1CCN(CC(=O)O)CCN(CC(=O)O)CC1)C(C)C)C(N)=O [^68Ga-NOTA-PEG2-RM26, metal not drawn]	-2.27 ± 0.07									
